Source: patent US20250270301A1 (GEN2 NEUROSCIENCE, published 2025)
Where two headings read alike, the source gives them in different places.

Columns and labels:
[1] = molecular target: monomeric P301S 2N4R tau, pHrodo-labelled (human, UniProt P10636 1-758, pHrodo Red maleimide label); assay: cell-based or functional assay
[2] = molecular target: aggregated (oligomeric) P301S 2N4R tau, pHrodo-labelled (human, UniProt P10636 1-758, pHrodo Red maleimide label); assay: cell-based or functional assay
aggregated (oligomeric) P301S 2N4R tau, pHrodo-labelled, sequence (P10636 other isoform, or with tags, fused parts or gaps P301S P301S): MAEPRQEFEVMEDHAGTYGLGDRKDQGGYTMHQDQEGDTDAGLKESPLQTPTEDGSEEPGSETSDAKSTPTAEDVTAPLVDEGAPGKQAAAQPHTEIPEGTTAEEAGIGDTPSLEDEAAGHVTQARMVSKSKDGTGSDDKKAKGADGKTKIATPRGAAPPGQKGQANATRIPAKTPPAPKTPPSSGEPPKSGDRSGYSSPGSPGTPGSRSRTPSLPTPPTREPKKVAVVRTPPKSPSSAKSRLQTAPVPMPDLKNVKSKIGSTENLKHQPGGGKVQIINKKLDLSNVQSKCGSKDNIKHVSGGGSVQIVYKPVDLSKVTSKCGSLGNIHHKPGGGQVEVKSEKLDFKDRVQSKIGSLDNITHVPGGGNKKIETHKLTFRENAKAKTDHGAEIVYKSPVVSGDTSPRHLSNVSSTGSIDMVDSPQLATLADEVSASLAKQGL

[3] = molecular target: T1, full length recombinant human 2N4R tau (human, UniProt P10636 1-758); assay: SPR SCK, IgG on Protein A, tau in flow
T1 construct: bought from rPeptide; pHrodo Red maleimide-labelled where it stands in uptake assays; also called tau1-441; full length tau
T1 sequence (P10636 other isoform, or with tags, fused parts or gaps limits assumed): as the sequence (P10636 other isoform, or with tags, fused parts or gaps P301S P301S) above, with S301P counted along it
Summary of the method: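 Antibodies were captured to ~50 RU on a Protein A chip in HBS-EP+ with 1 mg/mL BSA at 25 °C. Tau was injected by single-cycle kinetics at 1.25–10 nM (2-fold), with 60 s association and 200 s dissociation. Signals were referenced to a mock-immobilized cell.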

[4] = molecular target: T1, full length recombinant human 2N4R tau; assay: SPR MCK, IgG on Protein A, tau in flow
Protocol: Slight variations in RMAX are considered likely to be due to differences in ligand capture and not reflective of significant variation in antibody binding characteristics.
22.2 Assessment of antibody binding to tau (Biacore MCK analysis): Binding of anti-tau hIgG1 to full length recombinant 2N4R tau (Rpeptide; SEQ ID NO: 2) was assessed using the Biacore T200 (GE Healthcare, Chicago, IL, USA) running Biacore T200 Evaluation Software V2.0.1. hIgG1 were immobilised on a Protein A capture sensor chip in running buffer (HBS-EP+ buffer containing 1 mg/mL BSA) at 25° C., captured to ˜50 RU at […]. For multi-cycle kinetics experiments, recombinant 2N4R tau was flowed at concentrations ranging from 0.39 nM to 12.5 nM in running buffer at 40 μL/min, with an association time of 60 s and a dissociation time of 200 s. Curves were compared to a reference cell that was mock immobilized (no antibody present).

[5] = molecular target: T1, full length recombinant human 2N4R tau; assay: SPR SCK, IgG on Protein A, tau in flow; remark: listed apart in the source
[6] = molecular target: T1, full length recombinant human 2N4R tau; assay: SPR MCK, IgG on Protein A, tau in flow at 100 µL/min
Bovine serum albumin [7] = molecular target: T2, Bovine serum albumin (bovine, UniProt P02769 25-607); assay: ELISA on 1% BSA, HEK supernatant, anti-human IgG-HRP, n=1
T2 construct: also called BSA
T2 sequence (P02769 25-607 limits assumed): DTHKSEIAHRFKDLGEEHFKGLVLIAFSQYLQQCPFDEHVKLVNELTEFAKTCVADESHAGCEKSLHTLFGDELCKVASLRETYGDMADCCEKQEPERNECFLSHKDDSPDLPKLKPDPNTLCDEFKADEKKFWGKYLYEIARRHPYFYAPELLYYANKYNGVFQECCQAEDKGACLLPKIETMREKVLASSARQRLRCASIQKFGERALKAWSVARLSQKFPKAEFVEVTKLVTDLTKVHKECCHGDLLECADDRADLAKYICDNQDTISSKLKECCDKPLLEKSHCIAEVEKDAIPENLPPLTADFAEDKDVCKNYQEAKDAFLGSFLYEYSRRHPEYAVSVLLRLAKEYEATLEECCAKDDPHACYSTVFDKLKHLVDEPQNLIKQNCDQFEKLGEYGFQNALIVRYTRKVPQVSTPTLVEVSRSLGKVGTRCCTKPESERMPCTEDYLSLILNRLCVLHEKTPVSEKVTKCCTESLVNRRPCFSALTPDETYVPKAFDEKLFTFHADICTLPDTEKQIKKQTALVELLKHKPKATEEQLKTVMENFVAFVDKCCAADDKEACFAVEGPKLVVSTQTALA
Summary of the method: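 Wells coated with antigen, blocked 1 h RT in 5% milk/TBS; HEK293 transient-transfection supernatants applied at 1:100 in 1% BSA/TBS for 1 h RT. Bound hIgG1 detected with anti-human IgG-HRP (1:2000), TMB 15 min, acid stop, OD450; single replicate.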

Bovine serum albumin [8] = molecular target: T2, Bovine serum albumin; assay: as above; remark: listed apart in the source

monomeric P301S 2N4R tau, pHrodo-labelled, sequence (P10636 other isoform, or with tags, fused parts or gaps P301S P301S): as the sequence (P10636 other isoform, or with tags, fused parts or gaps P301S P301S) above

Row | Binder | inhibition of monomeric tau uptake into human astrocytes [1] [%] | inhibition of aggregated tau uptake into human astrocytes [2] [%] | Fold change (KD, to pVH/pVL) [5] | Kd [5] [nM] | koff [5] [s⁻¹] | kon [5] [M⁻¹ s⁻¹] | Fold improvement (KD, to pVH/pVL) [6] | Kd [6] [nM] | koff [6] [s⁻¹] | kon [6] [M⁻¹ s⁻¹] | binding result (Bovine serum albumin [8]) | also measured
1 | #44_VH4VK4 humanised hIgG1 (antibody, V domains shown, also called VH4Vκ4; pVH/pVL) VH: QVQLQESGPGLVKPSETLSLTCTVSGIDLSSYAMAWVRQAPGKGLEWIGCIDRRGGTFYASWVKGRFTISKDTSKTTVDLQMTSLTAEDTATYFCARDSGAFDPWGQGTLVTVSS VL: DIQMTQSPSSLSASVGDRVTITCQASQSVYDNYLAWYQQKPGQPPKLLIHAASNLASGVPSRFSGSGSGTEFTLTISSLQPDDFATYYCLGEFSCTTTDCNVFGGGTKVEIK | 52.3 | 41.3 | 1 | 6.58 | 0.012 | 1.82e+06 | 1 | 7.76 | 0.0147 | 1.89e+06 | – | increase of monomeric tau uptake into human iPSC-derived microglia [1]: 59.4%; inhibition of monomeric tau uptake into human iPSC-derived astrocytes [1]: 94.1%; increase of aggregated tau uptake into human iPSC-derived microglia [2]: 115%; inhibition of aggregated tau uptake into human iPSC-derived astrocytes [2]: 61.9%; Kd [3]: 8.12 nM; Relative KD (to VH0VK0) [3]: 2.12; koff [3]: 0.0294 s⁻¹; kon [3]: 3.61e+06 M⁻¹ s⁻¹; Kd [4]: 5.84 nM; Relative KD (to VH0VK0) [4]: 1.8; koff [4]: 0.0316 s⁻¹; kon [4]: 5.41e+06 M⁻¹ s⁻¹; binding result (Bovine serum albumin [7]): no binding (tested: supernatant 1:100)
2 | #44_VH4VK4_H17/pVL (antibody, V domains shown, also called Clone VH4_H17; #44_VH4_H17) VH: QVQLQESGPGLVKPSETLSLTCTVSGIDLSSYAMAWVRQAPGKGLEWIGAIDRVGNTFYASWVKGRFTISKDTSKTTVDLQMTSLTAEDTATYFCARDSGAFDPWGQGTLVTVSS VL: DIQMTQSPSSLSASVGDRVTITCQASQSVYDNYLAWYQQKPGQPPKLLIHAASNLASGVPSRFSGSGSGTEFTLTISSLQPDDFATYYCLGEFSCTTTDCNVFGGGTKVEIK | – | – | 1.03 | 6.36 | 0.306 | 4.81e+07 | – | – | – | – | no binding (tested: 30 ng/ml (legend 1:100)) | –
3 | #44_VH4VK4_H01/pVL (antibody, V domains shown, also called Clone VH4_H01; #44_VH4_H01) VH: QVQLQESGPGLVKPSETLSLTCTVSGIDLSSYAMAWVRQAPGKGLEWIGCIDRRGGTFYASWVKGRFTISKDTSKTTVDLQMTSLTAEDTATYFCARDVGSFDVWGQGTLVTVSS VL: DIQMTQSPSSLSASVGDRVTITCQASQSVYDNYLAWYQQKPGQPPKLLIHAASNLASGVPSRFSGSGSGTEFTLTISSLQPDDFATYYCLGEFSCTTTDCNVFGGGTKVEIK | 67.5 | 38.6 | 2.43 | 2.71 | 0.00805 | 2.97e+06 | 1.9 | 4.01 | 0.00957 | 2.39e+06 | no binding (tested: 30 ng/ml (legend 1:100)) | inhibition of monomeric tau uptake into human iPSC-derived neurons [1]: 89.2%; inhibition of aggregated tau uptake into human iPSC-derived neurons [2]: 61.1%
4 | #44_VH4VK4_H18/pVL (antibody, V domains shown, also called Clone VH4_H18; #44_VH4_H18) VH: QVQLQESGPGLVKPSETLSLTCTVSGIDLSSYAMAWVRQAPGKGLEWIGAIDAGGNTFYASWVKGRFTISKDTSKTTVDLQMTSLTAEDTATYFCARDSGAFDPWGQGTLVTVSS VL: DIQMTQSPSSLSASVGDRVTITCQASQSVYDNYLAWYQQKPGQPPKLLIHAASNLASGVPSRFSGSGSGTEFTLTISSLQPDDFATYYCLGEFSCTTTDCNVFGGGTKVEIK | – | – | 0.19 | 34.2 | 0.00983 | 287000 | – | – | – | – | no binding (tested: 30 ng/ml (legend 1:100)) | –
5 | #44_VH4VK4_H19/pVL (antibody, V domains shown, also called Clone VH4_H19; #44_VH4_H19) VH: QVQLQESGPGLVKPSETLSLTCTVSGIDLSSYAMAWVRQAPGKGLEWIGAIDSRGATFYASWVKGRFTISKDTSKTTVDLQMTSLTAEDTATYFCARDSGAFDPWGQGTLVTVSS VL: DIQMTQSPSSLSASVGDRVTITCQASQSVYDNYLAWYQQKPGQPPKLLIHAASNLASGVPSRFSGSGSGTEFTLTISSLQPDDFATYYCLGEFSCTTTDCNVFGGGTKVEIK | – | – | 0.68 | 9.72 | 0.0122 | 1.26e+06 | – | – | – | – | no binding (tested: 30 ng/ml (legend 1:100)) | –
6 | #44_VH4VK4_H16/pVL (antibody, V domains shown, also called Clone VH4_H16; #44_VH4_H16) VH: QVQLQESGPGLVKPSETLSLTCTVSGIDLSSYAMAWVRQAPGKGLEWIGAIDRAGNTFYASWVKGRFTISKDTSKTTVDLQMTSLTAEDTATYFCARDSGAFDPWGQGTLVTVSS VL: DIQMTQSPSSLSASVGDRVTITCQASQSVYDNYLAWYQQKPGQPPKLLIHAASNLASGVPSRFSGSGSGTEFTLTISSLQPDDFATYYCLGEFSCTTTDCNVFGGGTKVEIK | – | – | 0.69 | 9.51 | – | – | – | – | – | – | no binding (tested: 30 ng/ml (legend 1:100)) | –
7 | #44_VH4VK4_H02/pVL (antibody, V domains shown, also called Clone VH4_H02; #44_VH4_H02) VH: QVQLQESGPGLVKPSETLSLTCTVSGIDLSSYAMAWVRQAPGKGLEWIGCIDRRGGTFYASWVKGRFTISKDTSKTTVDLQMTSLTAEDTATYFCARDRGDFDVWGQGTLVTVSS VL: DIQMTQSPSSLSASVGDRVTITCQASQSVYDNYLAWYQQKPGQPPKLLIHAASNLASGVPSRFSGSGSGTEFTLTISSLQPDDFATYYCLGEFSCTTTDCNVFGGGTKVEIK | 64.7 | 43.3 | 5.62 | 1.17 | 0.00324 | 2.78e+06 | 5.1 | 1.52 | 0.0037 | 2.43e+06 | no binding (tested: 30 ng/ml (legend 1:100)) | inhibition of monomeric tau uptake into human iPSC-derived neurons [1]: 84.1%; inhibition of aggregated tau uptake into human iPSC-derived neurons [2]: 59.2%
8 | #44_VH4VK4_H15/pVL (antibody, V domains shown, also called Clone VH4_H15; #44_VH4_H15) VH: QVQLQESGPGLVKPSETLSLTCTVSGIDLSSYAMAWVRQAPGKGLEWIGAIDSVGNTFYASWVKGRFTISKDTSKTTVDLQMTSLTAEDTATYFCARDSGAFDPWGQGTLVTVSS VL: DIQMTQSPSSLSASVGDRVTITCQASQSVYDNYLAWYQQKPGQPPKLLIHAASNLASGVPSRFSGSGSGTEFTLTISSLQPDDFATYYCLGEFSCTTTDCNVFGGGTKVEIK | – | – | 0.75 | 8.76 | 0.0361 | 4.12e+06 | – | – | – | – | no binding (tested: 30 ng/ml (legend 1:100)) | –
9 | #44_VH4VK4_H20/pVL (antibody, V domains shown, also called Clone VH4_H20; #44_VH4_H20) VH: QVQLQESGPGLVKPSETLSLTCTVSGIDLSSYAMAWVRQAPGKGLEWIGAIDSRGSTFYASWVKGRFTISKDTSKTTVDLQMTSLTAEDTATYFCARDSGAFDPWGQGTLVTVSS VL: DIQMTQSPSSLSASVGDRVTITCQASQSVYDNYLAWYQQKPGQPPKLLIHAASNLASGVPSRFSGSGSGTEFTLTISSLQPDDFATYYCLGEFSCTTTDCNVFGGGTKVEIK | – | – | 0.75 | 8.78 | 0.0404 | 4.6e+06 | – | – | – | – | no binding (tested: 30 ng/ml (legend 1:100)) | –
10 | #44_VH4VK4 pVH/L2 (antibody, V domains shown, also called Clone VK4_L2; #44_VK4_L2) VH: QVQLQESGPGLVKPSETLSLTCTVSGIDLSSYAMAWVRQAPGKGLEWIGCIDRRGGTFYASWVKGRFTISKDTSKTTVDLQMTSLTAEDTATYFCARDSGAFDPWGQGTLVTVSS VL: DIQMTQSPSSLSASVGDRVTITCQASQSVYDNYLAWYQQKPGQPPKLLIHAASNLASGVPSRFSGSGSGTEFTLTISSLQPDDFATYYCLGEFSCQDTDCNVFGGGTKVEIKR | – | – | 0.89 | 7.38 | – | – | – | – | – | – | no binding (tested: 30 ng/ml (legend 1:100)) | –
